Test results: article PMC8249616, “Structural basis of the activation of c-MET receptor” (Nature Communications, 2021)

B1: c-MET927-LZ (c-MET 1-927, GGGGS linker, GCN4 leucine zipper), tags cleaved (receptor)
chain: not shown
notes: signal peptide in the construct; linker; written here as one chain; also called c-MET-LZ; c-MET I; source: HEK293F infected with baculovirus (pEZT-BM), secreted, purified (Ni resin, SEC); not shown: Tsi3, C-terminal, cleaved; His6, C-terminal, cleaved
B2: NK1 (human HGF amino acids 31-209) (ligand, UniProt P14210 31-209, looked up)
chain: GQRKRRNTIHEFKKSAKTTLIKIDPALKIKTKKVNTADQCANRCTRNKGLPFTCKAFVFDKARKQCLWFPFNSMSSGVKKEFGHEFDLYENKDYIRNCIIGKGRSYKGTVSITKSGIKCQPWSSMIPHEHSFLPSSYRGKDLQENYCRNPRGEEGGPWCFTSNPEVRYEVCDIPQCSEV
notes: human HGF amino acids 31-209 (N and K1 domains), after an HR3C site; source: E. coli Rosetta-gami 2 (DE3), purified (Ni Sepharose, SEC); not shown: DsBC, N-terminal, cleaved; His6, N-terminal, cleaved

Legend:
[1] = biological target: the molecule itself; assay: SEC; c-MET927 or c-MET927-LZ alone and mixed with HGF in vitro (Supplementary Fig. 1); whether heparin was added is not told
[2] = biological target: T1, full-length human hepatocyte growth factor (HGF), wild type (human, UniProt P14210 32-728); assay: as above; details: both partners purified
T1 construct: signal peptide in the construct; full-length human HGF followed by an HR3C site and a His6 tag; written here as one chain; also called HGF WT; HGF I; source: HEK293F infected with baculovirus (pEZT-BM), 5% FBS in the medium, secreted, purified (cation exchange, SEC)

[3] = biological target: B2; assay: cryo-EM structure; c-MET927-LZ mixed with NK1 and heparin (Tinzaparin sodium) 1:1:4, complex isolated by SEC in 20 mM Hepes pH 7.5, 100 mM NaCl; 2 mM fluorinated Fos-Choline-8 added before freezing; details: both partners purified
[4] = biological target: the molecule itself; assay: as above

T1 sequence (P14210 32-728): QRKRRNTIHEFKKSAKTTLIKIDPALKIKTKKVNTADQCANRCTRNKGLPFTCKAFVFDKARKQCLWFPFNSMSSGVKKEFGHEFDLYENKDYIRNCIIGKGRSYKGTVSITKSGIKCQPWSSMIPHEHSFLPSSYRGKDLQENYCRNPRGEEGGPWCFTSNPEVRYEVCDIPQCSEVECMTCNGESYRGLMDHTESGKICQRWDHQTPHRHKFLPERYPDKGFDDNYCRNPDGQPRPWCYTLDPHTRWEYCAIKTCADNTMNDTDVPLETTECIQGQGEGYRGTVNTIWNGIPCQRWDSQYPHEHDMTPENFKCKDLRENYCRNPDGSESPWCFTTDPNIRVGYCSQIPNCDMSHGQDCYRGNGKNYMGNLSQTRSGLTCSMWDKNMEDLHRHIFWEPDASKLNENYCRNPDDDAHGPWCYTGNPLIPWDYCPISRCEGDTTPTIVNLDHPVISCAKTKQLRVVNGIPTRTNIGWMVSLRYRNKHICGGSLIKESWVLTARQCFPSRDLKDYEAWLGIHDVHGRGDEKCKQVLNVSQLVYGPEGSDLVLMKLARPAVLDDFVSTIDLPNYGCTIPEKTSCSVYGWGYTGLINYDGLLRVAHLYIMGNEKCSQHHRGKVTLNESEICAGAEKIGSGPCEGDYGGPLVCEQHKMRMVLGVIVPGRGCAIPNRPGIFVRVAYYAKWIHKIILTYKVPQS

Binder	stoichiometry N [1]	binding result [2]	binding result [3]	stoichiometry N [4]
B1	2	binds	binds	
B2				2
